Test results reported in the supplement of paper PMC7877785.
± gives the uncertainty stated by the source.

Test: self-splicing fitness, log relative to wild type (ln ratio); higher = more splicing; Tetrahymena group I intron in knt gene, E. coli kanamycin selection, DiMSum; sequences stand for … in CUCUCU…GGAGGGAAAAGUUAUCAGGCAUGCACCUGGUAGCUAGUCUUUAAACCAAUAGAUUGCAUCGGUUUAAAAGGCAAGACCGUCAAAUUGCGGGAAAGGGGUCAACAGCCGUUCAGUACCAAGUCUCAGGGGAAACUUUGAGAUGGCCUUGCAAAGGGUAUGGUAAUAAGCUGACGGACAUGGUCCUAACCACGCAGCCAAGUCCUAAGUCAACAGAUCUUCUGUUGAUAUGGAUGCAGUUCACAGACUAAAUGUCGGUCGGGGAAGAUGUAUUCUUCUCAUAAGAUAUAGUCGGACCUCUCCUUAAUGGGAGCUAGCGGAUGAAGUGAUGCAACACUGGAGCCGCUGGGAACUAAUUUGUAUGCGAAAGUAUAUUGAUUAGUUUUGGAGUACUCGUGGUCG
Procedure, shortened: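 The eight P1ex-region nucleotides of an intron in the knt kanamycin-resistance gene on pET-22b(+) were all randomised and the library put into E. coli BL21(DE3). Six replicate transformations were grown overnight at 37°C or 30°C on LB agar with or without 25 μg/mL kanamycin, together with 100 μg/mL carbenicillin, 50 μM IPTG and 0.2% rhamnose. Colonies were pooled and amplicon-sequenced on an Illumina HiSeq 2500. Fitness from DiMSum is the error-weighted combination of wild-type-normalised replicate fold changes, kanamycin over none.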

## CCACAGCAAUAUUACGUCAU
30 °C
  self-splicing fitness (ln): -3.67 ± 0.16
37 °C
  self-splicing fitness (ln): -2.81 ± 0.16

## CCACAGCAAUAUUACGUGUU
30 °C
  self-splicing fitness (ln): -3.75 ± 0.1
37 °C
  self-splicing fitness (ln): -3.15 ± 0.14

## CCAGAGCAAUAUUACGAACC
30 °C
  self-splicing fitness (ln): -2.33 ± 0.28
37 °C
  self-splicing fitness (ln): -1.77 ± 0.38

## CCAGAGCAAUAUUACGAAGA
30 °C
  self-splicing fitness (ln): -3.48 ± 0.31
37 °C
  self-splicing fitness (ln): -2.84 ± 0.43

## CCAGAGCAAUAUUACGAAUC
30 °C
  self-splicing fitness (ln): -3.76 ± 0.26
37 °C
  self-splicing fitness (ln): -2.74 ± 0.27

## CCAGAGCAAUAUUACGACCU
30 °C
  self-splicing fitness (ln): -2.54 ± 0.23
37 °C
  self-splicing fitness (ln): -3.29 ± 0.39

## CCAGAGCAAUAUUACGCAAU
30 °C
  self-splicing fitness (ln): -2.14 ± 0.2
37 °C
  self-splicing fitness (ln): -2.05 ± 0.31

## CCAGAGCAAUAUUACGCCAA
37 °C
  self-splicing fitness (ln): -3.04 ± 0.47

## CCAGAGCAAUAUUACGCCAG
30 °C
  self-splicing fitness (ln): -3.07 ± 0.25

## CCAGAGCAAUAUUACGCCUC
30 °C
  self-splicing fitness (ln): -3.12 ± 0.31
37 °C
  self-splicing fitness (ln): 0.134 ± 0.26

## CCAGAGCAAUAUUACGGGAA
37 °C
  self-splicing fitness (ln): 0.0973 ± 0.28

## CCAGAGCAAUAUUACGGGCC
30 °C
  self-splicing fitness (ln): -2.83 ± 0.22
37 °C
  self-splicing fitness (ln): -2.55 ± 0.26

## CCAGAGCAAUAUUACGGGUA
30 °C
  self-splicing fitness (ln): -2.35 ± 0.29
37 °C
  self-splicing fitness (ln): -2.3 ± 0.3

## CCAGAGCAAUAUUACGGUGC
30 °C
  self-splicing fitness (ln): -2.81 ± 0.14
37 °C
  self-splicing fitness (ln): -2.28 ± 0.23

## CCAGAGCAAUAUUACGUAAA
30 °C
  self-splicing fitness (ln): -2.75 ± 0.2
37 °C
  self-splicing fitness (ln): -1.29 ± 0.3

## CCAGAGCAAUAUUACGUAAG
30 °C
  self-splicing fitness (ln): -1.59 ± 0.097
37 °C
  self-splicing fitness (ln): -0.37 ± 0.12

## CCAGAGCAAUAUUACGUAUG
30 °C
  self-splicing fitness (ln): -2.22 ± 0.11
37 °C
  self-splicing fitness (ln): -1.77 ± 0.12

## CCAGAGCAAUAUUACGUCGC
30 °C
  self-splicing fitness (ln): -3.95 ± 0.32
37 °C
  self-splicing fitness (ln): -2.49 ± 0.29

## CCAGAGCAAUAUUACGUCUG
30 °C
  self-splicing fitness (ln): -3.53 ± 0.2
37 °C
  self-splicing fitness (ln): -1.63 ± 0.14

## CCAGAGCAAUAUUACGUUGA
30 °C
  self-splicing fitness (ln): -2.69 ± 0.22
37 °C
  self-splicing fitness (ln): -3.35 ± 0.24

## CCAUAGCAAUAUUACGAGAU
30 °C
  self-splicing fitness (ln): -3.81 ± 0.35
37 °C
  self-splicing fitness (ln): -2.12 ± 0.21

## CCAUAGCAAUAUUACGAUAA
37 °C
  self-splicing fitness (ln): -3.15 ± 0.4

## CCAUAGCAAUAUUACGAUCU
30 °C
  self-splicing fitness (ln): -3.15 ± 0.34
37 °C
  self-splicing fitness (ln): -2.96 ± 0.44

## CCAUAGCAAUAUUACGAUGC
30 °C
  self-splicing fitness (ln): -3.11 ± 0.17
37 °C
  self-splicing fitness (ln): -1.88 ± 0.17

## CCAUAGCAAUAUUACGAUUA
30 °C
  self-splicing fitness (ln): -3.12 ± 0.32
37 °C
  self-splicing fitness (ln): -2.54 ± 0.28

## CCAUAGCAAUAUUACGCACU
30 °C
  self-splicing fitness (ln): -3.41 ± 0.4
37 °C
  self-splicing fitness (ln): -3.05 ± 0.34

## CCAUAGCAAUAUUACGCAUG
30 °C
  self-splicing fitness (ln): -3.37 ± 0.19
37 °C
  self-splicing fitness (ln): -0.732 ± 0.13

## CCAUAGCAAUAUUACGCAUU
30 °C
  self-splicing fitness (ln): -3.65 ± 0.26
37 °C
  self-splicing fitness (ln): -2.84 ± 0.36

## CCAUAGCAAUAUUACGCUUU
30 °C
  self-splicing fitness (ln): -4.72 ± 0.28
37 °C
  self-splicing fitness (ln): -3.1 ± 0.2

## CCAUAGCAAUAUUACGGGAC
37 °C
  self-splicing fitness (ln): -2.82 ± 0.28

## CCAUAGCAAUAUUACGUAAC
37 °C
  self-splicing fitness (ln): -2.7 ± 0.29

## CCAUAGCAAUAUUACGUACC
30 °C
  self-splicing fitness (ln): -3.95 ± 0.47
37 °C
  self-splicing fitness (ln): -2.21 ± 0.36

## CCAUAGCAAUAUUACGUAUG
30 °C
  self-splicing fitness (ln): -3.88 ± 0.15
37 °C
  self-splicing fitness (ln): -2.19 ± 0.13

## CCAUAGCAAUAUUACGUCCU
30 °C
  self-splicing fitness (ln): -2.86 ± 0.23
37 °C
  self-splicing fitness (ln): -2.64 ± 0.48

## CCAUAGCAAUAUUACGUGAA
30 °C
  self-splicing fitness (ln): -3.25 ± 0.21
37 °C
  self-splicing fitness (ln): -2.07 ± 0.26

## CCAUAGCAAUAUUACGUGUU
30 °C
  self-splicing fitness (ln): -3.47 ± 0.14
37 °C
  self-splicing fitness (ln): -3.36 ± 0.16

## CCCAAGCAAUAUUACGAAGG
30 °C
  self-splicing fitness (ln): -3.19 ± 0.17
37 °C
  self-splicing fitness (ln): -2.42 ± 0.17

## CCCAAGCAAUAUUACGACUC
30 °C
  self-splicing fitness (ln): -3.56 ± 0.33
37 °C
  self-splicing fitness (ln): -2.1 ± 0.33

## CCCAAGCAAUAUUACGAGCU
30 °C
  self-splicing fitness (ln): -4.17 ± 0.19
37 °C
  self-splicing fitness (ln): -2.44 ± 0.21

## CCCAAGCAAUAUUACGAGGU
30 °C
  self-splicing fitness (ln): -3.16 ± 0.091
37 °C
  self-splicing fitness (ln): -2.08 ± 0.086

## CCCAAGCAAUAUUACGAGUC
30 °C
  self-splicing fitness (ln): -3.23 ± 0.16
37 °C
  self-splicing fitness (ln): -3.28 ± 0.24

## CCCAAGCAAUAUUACGAUCC
37 °C
  self-splicing fitness (ln): -2.85 ± 0.35

## CCCAAGCAAUAUUACGCCCG
30 °C
  self-splicing fitness (ln): -2.76 ± 0.33
37 °C
  self-splicing fitness (ln): -2.44 ± 0.42

## CCCAAGCAAUAUUACGCCUC
30 °C
  self-splicing fitness (ln): -2.93 ± 0.25
37 °C
  self-splicing fitness (ln): -2.93 ± 0.34

## CCCAAGCAAUAUUACGCCUU
30 °C
  self-splicing fitness (ln): -3.04 ± 0.16
37 °C
  self-splicing fitness (ln): -2.88 ± 0.21

## CCCAAGCAAUAUUACGCGGU
30 °C
  self-splicing fitness (ln): -3.41 ± 0.12
37 °C
  self-splicing fitness (ln): -1.77 ± 0.12

## CCCAAGCAAUAUUACGCUAU
30 °C
  self-splicing fitness (ln): -3.85 ± 0.29
37 °C
  self-splicing fitness (ln): -3.13 ± 0.31

## CCCAAGCAAUAUUACGCUCU
30 °C
  self-splicing fitness (ln): -3.91 ± 0.26
37 °C
  self-splicing fitness (ln): -2.16 ± 0.18

## CCCAAGCAAUAUUACGGACA
30 °C
  self-splicing fitness (ln): -3.25 ± 0.27
37 °C
  self-splicing fitness (ln): -2.07 ± 0.14

## CCCAAGCAAUAUUACGGUGU
30 °C
  self-splicing fitness (ln): -2.71 ± 0.089
37 °C
  self-splicing fitness (ln): -1 ± 0.084
